Laboratory results as given in article PMC6715182, “Helicobacter pylori senses bleach (HOCl) as a chemoattractant using a cytosolic chemoreceptor” (PLoS Biology, 2019).

Legend:
[1] = test system: Nc1ncnc2c1ncn2[C@@H]1O[C@H](COP(=O)(O)OP(=O)(O)OP(=O)(O)O)[C@@H](O)[C@H]1O; experiment: purified protein; settings: Mg2+ ([…] MgCl2)
CheW (Escherichia coli) = CheW (Escherichia coli) (UniProt P0A964); settings: cited from earlier work
[2] = target: Helicobacter pylori transducer-like protein D lacking the N-terminal His tag, TlpD(-His) (Helicobacter pylori (SS1 strain)) (UniProt B5Z6X0); experiment: AUC; interference experiments, 3 x 28 uM TlpD(-His) in PBS (pH 7), 1 mM TCEP, 20 C, 55,000 rpm; KD from the integrated monomer and dimer peaks; dimer to monomers

Sequence of CheA (P07363 whole entry): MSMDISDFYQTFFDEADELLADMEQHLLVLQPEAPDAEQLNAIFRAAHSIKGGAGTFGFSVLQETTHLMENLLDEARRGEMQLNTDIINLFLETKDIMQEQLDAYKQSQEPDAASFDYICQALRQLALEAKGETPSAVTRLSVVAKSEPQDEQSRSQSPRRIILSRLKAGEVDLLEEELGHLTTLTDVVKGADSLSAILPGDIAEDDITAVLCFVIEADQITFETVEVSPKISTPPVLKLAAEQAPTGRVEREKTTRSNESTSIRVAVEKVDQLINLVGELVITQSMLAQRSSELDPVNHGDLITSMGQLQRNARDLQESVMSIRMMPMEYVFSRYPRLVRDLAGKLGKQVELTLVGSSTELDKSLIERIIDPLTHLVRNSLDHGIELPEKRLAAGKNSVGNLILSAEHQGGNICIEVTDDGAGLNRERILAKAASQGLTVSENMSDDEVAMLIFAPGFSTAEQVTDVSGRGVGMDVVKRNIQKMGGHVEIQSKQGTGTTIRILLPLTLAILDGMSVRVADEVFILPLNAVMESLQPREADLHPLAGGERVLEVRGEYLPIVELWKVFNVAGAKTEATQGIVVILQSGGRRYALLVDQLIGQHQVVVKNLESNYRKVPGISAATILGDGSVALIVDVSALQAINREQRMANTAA

CheA (Helicobacter pylori G27)
Km [1]: 136 µM

CheA (from UniProt P07363)
Kd (CheW (Escherichia coli)): 17 µM

Helicobacter pylori transducer-like protein D lacking the N-terminal His tag, TlpD(-His) (from UniProt B5Z6X0 1-433) (receptor)
Kd [2]: 0.0657 µM
